In PMC6370948, “Complement Dependent and Independent Interaction Between Bovine Conglutinin and Mycobacterium bovis BCG: Implications in Bovine Tuberculosis” (Frontiers in Immunology, 2018):

Biological target: the molecule itself
Assay: cross-linking; 20 μg/ml purified rfBC with BS3 (5 μl of 1 mM added to 100 μl), room temperature, 0-64 min, stopped with 20 mM Tris-HCl pH 7.5; SDS-PAGE and Coomassie staining

B1: recombinant truncated form of bovine conglutinin (rfBC), composed of the α-helical neck region and the CRD (domain or fragment, bovine (Bos taurus), UniProt P23805 217-371, looked up)
chain: EVNALKQRVTILDGHLRRFQNAFSQYKKAVLFPDGQAVGEKIFKTAGAVKSYSDAEQLCREAKGQLASPRSSAENEAVTQMVRAQEKNAYLSMNDISTEGRFTYPTGEILVYSNWADGEPNNSDEGQPENCVEIFPDGKWNDVPCSKQLLVICEF
notes: bovine conglutinin, neck region (amino acids 197-224) and C-terminal CRD (amino acids 225-351); numbers count on: the mature protein; also called recombinant fragment of conglutinin; recombinant bovine conglutinin
- stoichiometry N: 3
